Experimental data reported in article PMC8528238 (Nature, 2021).

B1: DH1047, cross-neutralizing RBD antibody (antibody, V domains shown)
VH: QVQLVQSGAEVKKPGASVQVSCQASANTFTNHYIHWVRQAPGQGLEWMGIIYPTGGNTIYAQGFQGRVTMTRDTSLNTIYLELSSLRSEDTAVYYCARDVRVDDSWSGYDLLSGGTYFDYWGQGTLVTVSS
VL: not shown
B2: DH1041, SARS-CoV-2-specific ACE2-binding site-focused RBD neutralizing antibody (antibody, V domains shown)
VH: EVQLVESGGGLVQPGGSLRLSCAASGVTFSSYWMSWVRQAPGKGLEWVANIRQDGSEKYSVDSVKGRFTISRDNAKNSLYLQMNSLRAEDTAVYYCARARRADNSGYYGFHFDCWGQGTLVTVSS
VL: QSVLTQPPSVSGAPGQRVTISCTGSSSNIGAGYDVHWYQQLPGTAPKLLIYGNNNRPSGVPDRFSDSKSGTSASLAITRLQAEDEADYYCQSYDSSLSGWVFGGGTKLTVL

Target: SARS-CoV-2 D614G stabilized spike ectodomain (SARS-CoV-2, D614G, UniProt A0A6H1PJZ3, D614G)
Assay: ELISA

Row | Binder | binding result
1 | B1 | binds
2 | B2 | binds
